For one substance, stoichiometry N (PolD per GINS) results are on record in PMC9023282.

Several values for one entry are separate records, joined by “and”; a condition that tells them apart may be missing. Identical values can stand only once.

In this experiment the target is GINS complex (Gins51 and Gins23), wild type (Thermococcus kodakarensis). The experiment can be described thus: native gel or EMSA.

On to “family D DNA polymerase (PolD), DP1 and DP2 (complex)”, for which the stoichiometry N (PolD per GINS) was 2 and 1.
